Tests used:
Assay type in all cases: cell-based
[1] = test system: Treg induction caused by FSTL1; assay: Treg induction inhibitory activity using human peripheral blood cells (Example 25); details: human PBMCs; FSTL1 5 ng/ml; antibody 5 μg/mL; 3 days
Procedure: (§1) Human peripheral blood cells (1×10^6 cells) were stimulated using FSTL1 (5 ng/ml), supplemented with the antibody (5 μg/mL), and cultured for 3 days. The percentage of a Foxp3^+CTLA4^+ cell fraction (Exp. 1) or a CD4^+Foxp3^+CTLA4^+ cell fraction (Exp. 2) in CD4^+ T cells was analyzed as Treg cells by flow cytometry. The flow cytometry conditions are as follows.
Blood was collected from a healthy person by the addition of a 1/10 amount of 4% sodium citrate, then layered on Ficoll (specific gravity: 1.090), and centrifuged (1500 rpm, 20 min, room temperature), and a cell fraction present in an intermediate layer was used as “PBMCs”. The antibody (5 μg/mL) was added to a system in which these PBMCs (1×10^4 cells) were cultured for 3 days under stimulation with FSTL1 (5 ng/ml) in a 24-well plate. PBMCs recovered from the culture system were incubated at 4° C. for 1 hour using an anti-CD4 antibody (BD Pharmingen/Becton, Dickinson and Company), an anti-CD25 antibody (BD Pharmingen/Becton, Dickinson and Company), and an anti-FoxP3 antibody (eBioscience). Then, the percentage of a Foxp3+CTLA4+ cell fraction (Exp. 1) or a CD4+Foxp3+CTLA4+ cell fraction (Exp. 2) in CD4+ T cells contained therein was analyzed as Treg cells using a flow cytometer FACScan (Becton, Dickinson and Company).

[2] = test system: Panc1, Panc1-snail+, MIAPaCa, MDA231, Hs294T; assay: Proliferative capacity and invasive capacity of various human tumor cells (Example 26); details: antibody 5 μg/ml; 3 days culture; Matrigel transwell 4 hours
Procedure: Specifically, the influence of the anti-FSTL1 antibody on proliferative capacity and invasive capacity was studied using various human tumor cells, regardless of the presence or absence of the expression of Snail or FSTL1. Specifically, the anti-FSTL1 antibody (#6-55, 5 μg/ml) or a control antibody (aHema: mouse chimeric anti-hemagglutinin antibody, 5 μg/ml) was added to systems in which a pancreatic cancer cell line Panc1 (ATCC #CRL-1469), Panc1-snail+ which is a Panc1 cell line forced to express Snail, a pancreatic cancer cell line MIAPaCa (ATCC #CRL-1420), a bone metastatic breast cancer cell line MDA231 (ATCC #HTB-26), and a melanoma cell line Hs294T (ATCC #HTB-140) were each cultured at 1×10^5 cells. After culture for 3 days, the number of cells per culture system was counted to evaluate the proliferative capacity of the cells. The cells (5×10^4 cells) after the counting were further inoculated to Matrigel-coated transwell chamber (Corning Inc. #354480) and cultured for 4 hours. Then, the membranes were removed, and stained and fixed with Crystal Violet fixative. Then, the number of cells that permeated the membranes was counted under a microscope to evaluate the invasive capacity of the cells.

[3] = test system: human peripheral blood cells; assay: Treg induction inhibition using human peripheral blood cells stimulated with FSTL1 (Example 25); details: FSTL1 5 ng/ml, antibody 5 μg/mL, 3 days; FIG. 113
Procedure: as §1
Blood was collected from a healthy person by the addition of a 1/10 amount of 4% sodium citrate, then layered on Ficoll (specific gravity: 1.090), and centrifuged (1500 rpm, 20 min, room temperature), and a cell fraction present in an intermediate layer was used as “PBMCs”. The antibody (5 μg/mL) was added to a system in which these PBMCs (1×10^6 cells) were cultured for 3 days under stimulation with FSTL1 (5 ng/ml) in a 24-well plate. PBMCs recovered from the culture system were incubated at 4° C. for 1 hour using an anti-CD4 antibody (BD Pharmingen/Becton, Dickinson and Company), an anti-CD25 antibody (BD Pharmingen/Becton, Dickinson and Company), and an anti-FoxP3 antibody (eBioscience). Then, the percentage of a Foxp3+CTLA4+ cell fraction (Exp. 1) or a CD4^+Foxp3^+CTLA4^+ cell fraction (Exp. 2) in CD4^+ T cells contained therein was analyzed as Treg cells using a flow cytometer FACScan (Becton, Dickinson and Company). […]

FSTL1 = molecular target: T1, FSTL1 (Homo sapiens, UniProt Q12841); assay: Treg induction inhibitory activity using human peripheral blood cells stimulated with FSTL1; set-up: purchased R&D Systems, Inc. 1694-FN-050; details: human PBMCs; FSTL1 5 ng/ml; antibody 5 μg/mL; 3 days
T1 sequence (Q12841 21-308): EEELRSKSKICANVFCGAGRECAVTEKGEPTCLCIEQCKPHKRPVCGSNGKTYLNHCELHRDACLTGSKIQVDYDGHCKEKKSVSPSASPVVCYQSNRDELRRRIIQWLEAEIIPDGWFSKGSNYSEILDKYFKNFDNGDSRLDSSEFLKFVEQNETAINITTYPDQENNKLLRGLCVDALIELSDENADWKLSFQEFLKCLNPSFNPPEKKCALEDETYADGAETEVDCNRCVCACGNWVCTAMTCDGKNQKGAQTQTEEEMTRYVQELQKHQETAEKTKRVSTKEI
Procedure: as §1
Blood was collected from a healthy person by the addition of a 1/10 amount of 4% sodium citrate, then layered on Ficoll (specific gravity: 1.090), and centrifuged (1500 rpm, 20 min, room temperature), and a cell fraction present in an intermediate layer was used as “PBMCs”. The antibody (5 μg/mL) was added to a system in which these PBMCs (1×10^6 cells) were cultured for 3 days under stimulation with FSTL1 (5 ng/ml) in a 24-well plate. […] Then, the percentage of a Foxp3+CTLA4+ cell fraction (Exp. 1) or a CD4^+Foxp3^+CTLA4^+ cell fraction (Exp. 2) in CD4+ T cells contained therein was analyzed as Treg cells using a flow cytometer FACScan (Becton, Dickinson and Company).
as §1, with “a Foxp3^+ CTLA4^+” for “a Foxp3^+CTLA4^+”, “cytometry. […]” for “cytometry. The flow cytometry conditions are as follows.”

B1: #6-55: chicken-mouse chimeric anti-FSTL1 antibody clone; variable regions SEQ ID NO: 783 (light), 785 (heavy) (antibody, V domains shown)
VH: AVTLDESGGGLQTPGGALSLVCKGSGFTFTSVTMQWVRQAPGKGLEWVASVCSGSSTYYAPAVKGRATISRDNGQSTVRLQLSNLRPEDTGTYYCAKIAGRARWSCTSAAYNIDAWGHGTEVIVSS
VL: ASTQPSSVSAIPGETVKITCSGGGNNYGWYQQRSPGSAPVTVIYYNDNRPSNIPSRFSGSTSGSTSTLTITGVQADDEAIYYCGSWDSNTDSGIFGAGTTLTVL
modifications: mouse constant regions
With B1 the “Treg induction by FSTL1 (Foxp3+CTLA4+ / CD4+Foxp3+CTLA4+ cell fraction)” value [1] was “significantly suppressed”, the “proliferative capacity and invasive capacity of tumor cells” value [2] was “both proliferative capacity and invasive capacity were strongly suppressed, particularly, in a highly metastatic tumor cell line highly expressing Snail” and the “Treg induction caused by FSTL1 (Foxp3+CTLA4+ fraction in CD4+ T cells)” value [3] was “significantly suppressed”. The “Treg induction caused by FSTL1 (Foxp3+CTLA4+ fraction in CD4+ T cells)” value (FSTL1) was “significantly suppressed”.

Reference: patent US20180021429A1, “ANTICANCER AGENTS OR ANTIMETASTATIC AGENTS USING FSTL1 AND COMBINATION DRUG THEREOF” (PHARMA FOODS INTERNATIONAL CO., LTD., priority 2015, published 2018)
